Experimental data: US20130059311A1, “METHOD FOR THE IDENTIFICATION OF MEMORY MODULATING COMPOUNDS BY ASSESSING KIBRA EXPRESSION” (SYGNIS BIOSCIENCE GMBH & CO KG, priority 2010, published 2013)

Legend:
PKC zeta = target: T1, PKC zeta (Homo sapiens, UniProt Q05513); experiment: PKC zeta kinase activity assay on pulldowns from COS cells; format: biochemical; conditions: pulldowns from COS cells over-expressing PKC zeta and KIBRA vs PKC zeta alone
T1 construct: expressed in transfected cells; host or cells: COS cells
T1 sequence (Q05513 1-592): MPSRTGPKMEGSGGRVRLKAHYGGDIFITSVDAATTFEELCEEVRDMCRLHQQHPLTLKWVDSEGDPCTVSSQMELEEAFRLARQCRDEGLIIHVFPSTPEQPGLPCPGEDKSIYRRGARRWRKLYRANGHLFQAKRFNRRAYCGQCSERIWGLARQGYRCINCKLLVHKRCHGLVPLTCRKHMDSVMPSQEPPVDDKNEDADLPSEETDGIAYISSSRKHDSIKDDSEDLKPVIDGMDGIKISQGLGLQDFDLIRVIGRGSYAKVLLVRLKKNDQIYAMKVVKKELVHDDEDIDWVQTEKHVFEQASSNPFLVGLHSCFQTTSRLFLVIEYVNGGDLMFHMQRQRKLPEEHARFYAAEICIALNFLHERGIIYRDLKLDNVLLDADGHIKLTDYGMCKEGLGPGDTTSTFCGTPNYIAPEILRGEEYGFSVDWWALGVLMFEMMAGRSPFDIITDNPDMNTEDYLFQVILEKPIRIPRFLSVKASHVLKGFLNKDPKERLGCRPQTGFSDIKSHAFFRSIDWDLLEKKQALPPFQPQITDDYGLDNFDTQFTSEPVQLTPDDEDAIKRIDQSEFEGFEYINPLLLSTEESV
Procedure: To investigate the impact of KIBRA on PKC zeta activity itself, PKC zeta activity were determined in an enzyme assay. The kinase activity in the assay is detected by the phosphorylation of a substrate peptide by an antibody reaction according to manufactures instruction (HTScan PKC zeta kinase assay kit, Cell Signaling Technology Inc., Danvers, Mass., USA). The antibody is detected by a lanthanide-labeled secondary antibody, which can be measured in a fluorescent plate reader.
In order to analyze PKC zeta activity with and without KIBRA, COS cells over-expressing PKC zeta alone or in combination with KIBRA were lysed and PKC zeta was pulled down with respective PKC zeta binding beads.
Previous studies have shown that PKC zeta co-immunoprecipitates with KIBRA, and immunoreactive bands for KIBRA in the western blot analysis confirmed that PKC zeta pulldowns include KIBRA protein from cells also over-expressing KIBRA. When pulldowns from cells over-expressing PKC zeta were compared to cells over-expressing both PKC zeta and KIBRA for the phosphorylation of substrate peptide in the activity assay, a strong increase of PKC zeta activity by 50% was observed. […] Analysis of the kinase activity of the truncated form confirmed that the phosphorylation of the peptide was only mediated by PKC zeta and no other kinase attached to the beads.

[1] = system: KIBRA (KIdney BRAin protein)

increase of PKC zeta activity (PKC zeta) | Substance | PKC zeta kinase activity (phosphorylation of substrate peptide, HTScan PKC zeta kinase assay kit) of PKC zeta pulldowns [1]
50% | KIBRA: KIBRA protein over-expressed in COS cells together with PKC zeta | 
 | protein kinase C zeta | a strong increase of PKC zeta activity by 50% was observed
